From patent US20060233822A1 (YANG SHENG TANG, published 2006)

Experiments:
polypeptide 239 = molecular target: T1, polypeptide 239 (hepatitis E virus, UniProt P29326 368-603); test: Western blot
T1 sequence: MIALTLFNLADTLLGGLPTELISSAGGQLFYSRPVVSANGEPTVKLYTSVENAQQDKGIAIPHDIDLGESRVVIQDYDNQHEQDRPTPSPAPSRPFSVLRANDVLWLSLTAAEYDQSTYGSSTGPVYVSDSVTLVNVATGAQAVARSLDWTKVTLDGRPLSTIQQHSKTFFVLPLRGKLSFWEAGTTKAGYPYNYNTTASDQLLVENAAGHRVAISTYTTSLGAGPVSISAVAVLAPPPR

NE2 mutant 600VE = molecular target: T2, NE2 mutant 600VE (hepatitis E virus, UniProt P29326 394-599); test: Western blot of NE2 mutant proteins with monoclonal antibody 16D7
T2 construct: position counted on HEV ORF2
T2 chain: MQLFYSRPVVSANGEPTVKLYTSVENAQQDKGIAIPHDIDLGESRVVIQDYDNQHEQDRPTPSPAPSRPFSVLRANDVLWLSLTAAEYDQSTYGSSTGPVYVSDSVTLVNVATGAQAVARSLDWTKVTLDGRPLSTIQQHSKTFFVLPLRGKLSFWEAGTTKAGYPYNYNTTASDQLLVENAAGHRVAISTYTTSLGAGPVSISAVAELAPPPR

NE2 mutant 598VE = molecular target: T3, NE2 mutant 598VE (hepatitis E virus, UniProt P29326 394-603); test: as above
T3 construct: position counted on HEV ORF2
T3 chain: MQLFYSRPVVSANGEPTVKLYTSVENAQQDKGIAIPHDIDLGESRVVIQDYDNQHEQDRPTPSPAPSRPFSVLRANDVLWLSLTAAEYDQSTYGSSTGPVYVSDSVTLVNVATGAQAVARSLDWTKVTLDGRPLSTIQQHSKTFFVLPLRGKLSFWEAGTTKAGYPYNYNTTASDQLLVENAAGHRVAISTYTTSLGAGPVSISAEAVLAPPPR

NE2 mutant 602AE = molecular target: T4, NE2 mutant 602AE (hepatitis E virus, UniProt P29326 394-601); test: as above
T4 construct: position counted on HEV ORF2
T4 chain: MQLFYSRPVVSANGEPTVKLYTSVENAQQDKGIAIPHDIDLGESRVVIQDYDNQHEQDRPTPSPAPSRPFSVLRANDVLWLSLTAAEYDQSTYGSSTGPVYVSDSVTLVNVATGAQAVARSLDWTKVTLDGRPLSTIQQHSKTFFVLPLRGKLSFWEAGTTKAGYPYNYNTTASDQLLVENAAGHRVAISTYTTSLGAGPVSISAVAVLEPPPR

NE2 mutant 601LP = molecular target: T5, NE2 mutant 601LP (hepatitis E virus, UniProt P29326 394-600); test: WB
T5 construct: position counted on HEV ORF2
T5 chain: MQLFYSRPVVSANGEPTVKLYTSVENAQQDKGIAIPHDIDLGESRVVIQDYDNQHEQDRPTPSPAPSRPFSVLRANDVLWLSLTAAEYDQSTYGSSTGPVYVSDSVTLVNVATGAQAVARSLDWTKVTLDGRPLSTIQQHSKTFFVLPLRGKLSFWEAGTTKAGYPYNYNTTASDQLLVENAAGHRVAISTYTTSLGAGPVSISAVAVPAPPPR

NE2 mutant 601LQ = molecular target: T6, NE2 mutant 601LQ (hepatitis E virus, UniProt P29326 394-600); test: WB
T6 construct: position counted on HEV ORF2
T6 chain: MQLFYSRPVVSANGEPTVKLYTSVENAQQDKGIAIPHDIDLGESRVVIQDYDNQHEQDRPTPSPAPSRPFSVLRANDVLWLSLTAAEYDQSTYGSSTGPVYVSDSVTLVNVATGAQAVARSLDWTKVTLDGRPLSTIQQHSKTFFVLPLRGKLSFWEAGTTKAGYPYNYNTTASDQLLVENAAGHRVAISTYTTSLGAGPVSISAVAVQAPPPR

NE2 mutant 601LE = molecular target: T7, NE2 mutant 601LE (hepatitis E virus, UniProt P29326 394-600); test: WB
T7 construct: position counted on HEV ORF2
T7 chain: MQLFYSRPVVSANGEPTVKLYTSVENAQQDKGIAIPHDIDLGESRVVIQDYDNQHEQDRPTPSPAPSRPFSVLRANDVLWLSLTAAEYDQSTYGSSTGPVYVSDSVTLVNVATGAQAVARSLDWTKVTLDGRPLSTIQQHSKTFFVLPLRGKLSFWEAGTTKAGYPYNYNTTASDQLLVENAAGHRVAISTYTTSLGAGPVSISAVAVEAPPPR

NE2 mutant 601LG = molecular target: T8, NE2 mutant 601LG (hepatitis E virus, UniProt P29326 394-600); test: WB
T8 construct: position counted on HEV ORF2
T8 chain: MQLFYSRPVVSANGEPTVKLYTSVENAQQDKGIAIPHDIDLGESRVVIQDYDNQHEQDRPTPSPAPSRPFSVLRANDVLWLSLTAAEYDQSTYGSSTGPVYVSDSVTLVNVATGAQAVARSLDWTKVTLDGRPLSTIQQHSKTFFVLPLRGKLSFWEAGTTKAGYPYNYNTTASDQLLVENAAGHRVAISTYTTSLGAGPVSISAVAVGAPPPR

NE2 mutant 601LI = molecular target: T9, NE2 mutant 601LI (hepatitis E virus, UniProt P29326 394-600); test: WB
T9 chain: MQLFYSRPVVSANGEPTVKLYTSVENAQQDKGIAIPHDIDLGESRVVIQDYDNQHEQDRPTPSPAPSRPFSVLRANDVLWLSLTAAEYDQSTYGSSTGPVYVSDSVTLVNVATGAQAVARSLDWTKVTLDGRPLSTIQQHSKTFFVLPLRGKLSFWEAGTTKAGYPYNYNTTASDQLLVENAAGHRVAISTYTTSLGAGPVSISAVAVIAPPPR

NE2 mutant 601LC = molecular target: T10, NE2 mutant 601LC (hepatitis E virus, UniProt P29326 394-600); test: WB
T10 construct: position counted on HEV ORF2
T10 chain: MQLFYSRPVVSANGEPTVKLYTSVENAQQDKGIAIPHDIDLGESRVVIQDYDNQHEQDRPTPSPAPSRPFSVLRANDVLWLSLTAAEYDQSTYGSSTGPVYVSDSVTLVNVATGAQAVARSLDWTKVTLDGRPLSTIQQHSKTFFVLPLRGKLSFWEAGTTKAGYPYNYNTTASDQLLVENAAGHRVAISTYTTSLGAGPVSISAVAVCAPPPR

Measured: binding result

B1: monoclonal antibody 16D7 (antibody, V domains shown)
VH: EVQLQQSGPELVKPGASVKMSCKASGYKFTSYVMHWVKQKPGQGLEWIGYINPSNDNIKYNEKFKGKAILTLDKSSSTAYMAFSSLTSEDSAVYYCATLTGVDYWGQGTTLTVSS
VL: DVVMTQTPLSLSVTIGQPASISCKSSQSLLYRNGKIYLNWLQQRPGQAPKHLMSQVSKLDPGIPDRFSGSGSETDFTLKISRVEAEDLGVYYCLQGTHYPYTFGGGTKLEIKR
notes: also called MAb 16D7; HRP-16D7
binds: all assays above
